Patent CN113072642A (FUZHOU MAIXIN BIOTECHNOLOGY DEV CO LTD, dated 2021)

Molecular target: T1, OCT3/4蛋白 (in tissue sections, immunohistochemistry) (human, UniProt Q01860 1-360, limits assumed)
T1 construct: Endogenous antigen in tumour and normal tissue chips; also called OCT3/4抗原
Test: immunohistochemistry on tumour tissue chip

T1 sequence (Q01860 whole entry): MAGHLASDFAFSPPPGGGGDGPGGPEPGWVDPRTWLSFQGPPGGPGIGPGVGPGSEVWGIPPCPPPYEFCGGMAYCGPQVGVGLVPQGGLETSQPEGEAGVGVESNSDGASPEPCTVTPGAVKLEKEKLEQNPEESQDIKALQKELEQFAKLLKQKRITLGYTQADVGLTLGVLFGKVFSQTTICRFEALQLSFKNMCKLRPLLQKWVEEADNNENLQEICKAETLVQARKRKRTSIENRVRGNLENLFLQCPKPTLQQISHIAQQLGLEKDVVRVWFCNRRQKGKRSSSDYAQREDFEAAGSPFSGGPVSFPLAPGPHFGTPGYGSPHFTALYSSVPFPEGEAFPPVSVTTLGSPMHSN

B1: 41B1细胞株所分泌的抗OCT3/4蛋白单克隆抗体 (antibody, mouse IgG2b, V domains shown)
VH: VKLQESGGGLVKPGGSLKLSCTASGFTFSTYAMSWVRQTPEKRLEWVAAINSNGGNTYYPDTVKDRFTISRDNAKNTLYLQMSSLRSDDTALYYCARDGYDYWGQGTTLTVSS
VL: DIVMTQDELSLPVSLGDQASISCRSSQSLVHSNGVTYLFWHLQRPGQSPKLLIYRVSNRFSGVPDRFSGSGSGTDFTLKISRVEAEDLGVYFCFQGTHVPFTFGTGTKLEIK
notes: also called OCT3/4(41B1); 41B1分泌的OCT3/4
binding result: binds
